Measurements from PMC7748142.

Target: T1, peroxiredoxin 1 (PRDX1), murine lung fibroblasts (mouse (endogenous in MLFs)), P35700
T1 chain: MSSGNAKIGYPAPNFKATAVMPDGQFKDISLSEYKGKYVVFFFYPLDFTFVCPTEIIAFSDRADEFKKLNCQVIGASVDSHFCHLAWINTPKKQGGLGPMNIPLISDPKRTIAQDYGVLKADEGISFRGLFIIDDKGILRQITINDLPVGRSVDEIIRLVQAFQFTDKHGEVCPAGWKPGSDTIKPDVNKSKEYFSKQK
Experiment: non-reducing SDS-PAGE with Western blot; A549 or MLF cells treated with Auranofin (A549: 10 uM, MLF: 2 uM) alone or with KU55933 (10 uM, 1 h pre-treatment); lysed in CHAPS buffer with 100 mM NEM; boiled in non-reducing sample buffer; disulfide-linked dimers
Details: remark: other sources report otherwise

stoichiometry N: 2
B1: peroxiredoxin 1 (PRDX1), murine lung fibroblasts, P35700 1-199 (enzyme)
chain: T1 chain
